In PMC4931181 (The EMBO Journal, 2016):
Where “and” joins values, the source holds several entries; their conditions need not be identical. Equal entries are not always repeated.

Legend:
native MS = target: the molecule itself; test: native MS
[1] = target: Xenopus laevis histone H2B (28–126) (Xenopus laevis, UniProt P02281 28-126); test: crystal structure

binding result [1] | Binder | stoichiometry N (native MS) | binding result (native MS)
 | Saccharomyces cerevisiae Nap1 full-length (residues 1–417) (natural protein) MSDPIRTKPKSSMQIDNAPTPHNTPASVLNPSYLKNGNPVRAQAQEQDDKIGTINEEDILANQPLLLQSIQDRLGSLVGQDSGYVGGLPKNVKEKLLSLKTLQSELFEVEKEFQVEMFELENKFLQKYKPIWEQRSRIISGQEQPKPEQIAKGQEIVESLNETELLVDEEEKAQNDSEEEQVKGIPSFWLTALENLPIVCDTITDRDAEVLEYLQDIGLEYLTDGRPGFKLLFRFDSSANPFFTNDILCKTYFYQKELGYSGDFIYDHAEGCEISWKDNAHNVTVDLEMRKQRNKTTKQVRTIEKITPIESFFNFFDPPKIQNEDQDEELEEDLEERLALDYSIGEQLKDKLIPRAVDWFTGAALEFEFEEDEEEADEDEDEEEDDDHGLEDDDGESAEEQDDFAGRPEQAPECKQS | 2 and 4 and 6 | 
binds | Saccharomyces cerevisiae Nap1 core domain (residues 75–365) (domain or fragment) GSLVGQDSGYVGGLPKNVKEKLLSLKTLQSELFEVEKEFQVEMFELENKFLQKYKPIWEQRSRIISGQEQPKPEQIAKGQEIVESLNETELLVDEEEKAQNDSEEEQVKGIPSFWLTALENLPIVCDTITDRDAEVLEYLQDIGLEYLTDGRPGFKLLFRFDSSANPFFTNDILCKTYFYQKELGYSGDFIYDHAEGCEISWKDNAHNVTVDLEMRKQRNKTTKQVRTIEKITPIESFFNFFDPPKIQNEDQDEELEEDLEERLALDYSIGEQLKDKLIPRAVDWFTGAAL | 2 and 4 and 6 | 
 | yNap1cΔ (core 75–365 with in-frame deletion of the β5–β6 region, Δ284–308) (domain or fragment) GSLVGQDSGYVGGLPKNVKEKLLSLKTLQSELFEVEKEFQVEMFELENKFLQKYKPIWEQRSRIISGQEQPKPEQIAKGQEIVESLNETELLVDEEEKAQNDSEEEQVKGIPSFWLTALENLPIVCDTITDRDAEVLEYLQDIGLEYLTDGRPGFKLLFRFDSSANPFFTNDILCKTYFYQKELGYSGDFIYDHAEGCEISWKDNAHNVIESFFNFFDPPKIQNEDQDEELEEDLEERLALDYSIGEQLKDKLIPRAVDWFTGAAL |  | binds
 | yNap1cΔ_G225D (domain or fragment) GSLVGQDSGYVGGLPKNVKEKLLSLKTLQSELFEVEKEFQVEMFELENKFLQKYKPIWEQRSRIISGQEQPKPEQIAKGQEIVESLNETELLVDEEEKAQNDSEEEQVKGIPSFWLTALENLPIVCDTITDRDAEVLEYLQDIGLEYLTDDRPGFKLLFRFDSSANPFFTNDILCKTYFYQKELGYSGDFIYDHAEGCEISWKDNAHNVIESFFNFFDPPKIQNEDQDEELEEDLEERLALDYSIGEQLKDKLIPRAVDWFTGAAL | 2 | 
